We go through 3 molecules from PMC5605434 (Nature chemical biology, 2017).

Series [1] addresses TPNOX (triphosphopyridine nucleotide oxidase), quintuple mutant of Lactobacillus brevis H2O-forming NADH oxidase (LbNOX) (Lactobacillus brevis).
For series [2], the target named is T1, LbNOX (Levilactobacillus brevis, UniProt Q03Q85).
T1 sequence (Q03Q85 1-450): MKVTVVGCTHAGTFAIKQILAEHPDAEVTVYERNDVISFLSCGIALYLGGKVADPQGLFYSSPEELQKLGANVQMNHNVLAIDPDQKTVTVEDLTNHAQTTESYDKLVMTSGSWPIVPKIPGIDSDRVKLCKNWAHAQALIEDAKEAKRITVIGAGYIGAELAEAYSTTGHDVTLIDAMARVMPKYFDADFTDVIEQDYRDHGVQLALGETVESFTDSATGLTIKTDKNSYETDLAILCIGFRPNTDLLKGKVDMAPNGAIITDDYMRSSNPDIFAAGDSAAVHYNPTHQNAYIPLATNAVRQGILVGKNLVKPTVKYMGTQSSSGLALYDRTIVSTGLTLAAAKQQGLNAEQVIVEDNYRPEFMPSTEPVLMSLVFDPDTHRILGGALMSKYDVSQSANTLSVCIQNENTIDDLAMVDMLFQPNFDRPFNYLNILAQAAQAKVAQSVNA
Put plainly: X-ray crystal structure. It is filed as binding. Particulars: NADH-soaked crystal; His-tag not cleaved.

Substrate in series [3]: NC(=O)C1=CN([C@@H]2O[C@H](COP(=O)(O)OP(=O)(O)OC[C@H]3O[C@@H](n4cnc5c(N)ncnc54)[C@H](OP(=O)(O)O)[C@@H]3O)[C@@H](O)[C@H]2O)C=CC1
Description: purified protein. Particulars: 50 mM NaPi, pH 7.5, 150 mM NaCl, 37 °C, O2 as co-substrate.

One may read the stoichiometry N as a count of units in the complex or per binding partner. In turn, “TPNOX (triphosphopyridine nucleotide oxidase), quintuple mutant of Lactobacillus brevis H2O-forming NADH oxidase (LbNOX) (enzyme)” registered a stoichiometry N in series [1] of 4.
Turning to `Cc1cc2nc3c(=O)[nH]c(=O)nc-3n(C[C@H](O)[C@H](O)[C@H](O)COP(=O)(O)OP(=O)(O)OC[C@H]3O[C@@H](n4cnc5c(N)ncnc54)[C@H](O)[C@@H]3O)c2cc1C` [FAD], the X-ray crystal structure result in series [2] is given as “can the nicotinamide ring of NADH come into proximity of FAD”.

B1: LbNOX (Levilactobacillus brevis ATCC 367) (protein)
chain: MKVTVVGCTHAGTFAIKQILAEHPDAEVTVYERNDVISFLSCGIALYLGGKVADPQGLFYSSPEELQKLGANVQMNHNVLAIDPDQKTVTVEDLTNHAQTTESYDKLVMTSGSWPIVPKIPGIDSDRVKLCKNWAHAQALIEDAKEAKRITVIGAGYIGAELAEAYSTTGHDVTLIDAMARVMPKYFDADFTDVIEQDYRDHGVQLALGETVESFTDSATGLTIKTDKNSYETDLAILCIGFRPNTDLLKGKVDMAPNGAIITDDYMRSSNPDIFAAGDSAAVHYNPTHQNAYIPLATNAVRQGILVGKNLVKPTVKYMGTQSSSGLALYDRTIVSTGLTLAAAKQQGLNAEQVIVEDNYRPEFMPSTEPVLMSLVFDPDTHRILGGALMSKYDVSQSANTLSVCIQNENTIDDLAMVDMLFQPNFDRPFNYLNILAQAAQAKVAQSVNA
In general, Km refers to the substrate concentration at which the rate is half of its maximum. Usually kcat stands for the number of substrate molecules converted per active site and unit of time at saturation. Broadly, the kcat/Km is the second-order rate constant that governs catalysis at low substrate concentration. Consider B1, for which, in series [3], the Km came to 621 ± 124 µM, the kcat came to 0.052 ± 0.001 s⁻¹ and the kcat/Km was found to be 83 ± 16 M⁻¹ s⁻¹.
